From publication PMC11574045, “A cofactor-induced repressive type of transcription factor condensation can be induced by synthetic peptides to suppress tumorigenesis” (The EMBO Journal, 2024)

B1: PCBD (protein, UniProt P61457 2-104, looked up)
Pterin-4-alpha-carbinolamine …: AGKAHRLSAEERDQLLPNLRAVGWNELEGRDAIFKQFHFKDFNRAFGFMTRVALQAEKLDHHPEWFNVYNKVHITLSTHECAGLSERDINLASFIEQVAVSMT
B2: ATONAL1 (protein, UniProt Q92858 1-354, looked up)
Transcription factor ATOH1: MSRLLHAEEWAEVKELGDHHRQPQPHHLPQPPPPPQPPATLQAREHPVYPPELSLLDSTDPRAWLAPTLQGICTARAAQYLLHSPELGASEAAAPRDEVDGRGELVRRSSGGASSSKSPGPVKVREQLCKLKGGVVVDELGCSRQRAPSSKQVNGVQKQRRLAANARERRRMHGLNHAFDQLRNVIPSFNNDKKLSKYETLQMAQIYINALSELLQTPSGGEQPPPPPASCKSDHHHLRTAASYEGGAGNATAAGAQQASGGSQRPTPPGSCRTRFSAPASAGGYSVQLDALHFSTFEDSALTAMMAQKNLSPSLPGSILQPVQEENSKTSPRSHRSDGEFSPHSHYSDSDEAS
B3: OVOL1 (protein, UniProt O14753 1-267, looked up)
Putative transcription factor …: MPRAFLVKKPCVSTCKRNWSELPDEERGEIYVPVSLGFCPPQPYREPEPSVAEPPSCPLALNMSLRDSSYSMAPGPCVVAQLPSEDMGHLTDPQSRDHGFLRTKMKVTLGDSPSGDLFTCRVCQKAFTYQRMLNRHMKCHNDVKRHLCTYCGKGFNDTFDLKRHVRTHTGVRPYKCSLCDKAFTQRCSLESHLKKIHGVQQKYAYKERRAKLYVCEECGCTSESQEGHVLHLKEHHPDSPLLRKTSKKVAVALQNTVTSLLQGSPHL
B4: PA2G4 (protein, UniProt Q9UQ80 2-394, looked up)
Proliferation-associated …: SGEDEQQEQTIAEDLVVTKYKMGGDIANRVLRSLVEASSSGVSVLSLCEKGDAMIMEETGKIFKKEKEMKKGIAFPTSISVNNCVCHFSPLKSDQDYILKEGDLVKIDLGVHVDGFIANVAHTFVVDVAQGTQVTGRKADVIKAAHLCAEAALRLVKPGNQNTQVTEAWNKVAHSFNCTPIEGMLSHQLKQHVIDGEKTIIQNPTDQQKKDHEKAEFEVHEVYAVDVLVSSGEGKAKDAGQRTTIYKRDPSKQYGLKMKTSRAFFSEVERRFDAMPFTLRAFEDEKKARMGVVECAKHELLQPFNVLYEKEGEFVAQFKFTVLLMPNGPMRITSGPFEPDLYKSEMEVQDAELKALLQSSASRKTQKKKKKKASKTAENATSGETLEENEAGD
B5: OLIG1 (protein, UniProt Q8TAK6 1-271, looked up)
Oligodendrocyte transcription …: MYYAVSQARVNAVPGTMLRPQRPGDLQLGASLYELVGYRQPPSSSSSSTSSTSSTSSSSTTAPLLPKAAREKPEAPAEPPGPGPGSGAHPGGSARPDAKEEQQQQLRRKINSRERKRMQDLNLAMDALREVILPYSAAHCQGAPGRKLSKIATLLLARNYILLLGSSLQELRRALGEGAGPAAPRLLLAGLPLLAAAPGSVLLAPGAVGPPDALRPAKYLSLALDEPPCGQFALPGGGAGGPGLCTCAVCKFPHLVPASLGLAAVQAQFSK
B6: NUP62 (protein, UniProt P37198 2-522, looked up)
Nuclear pore glycoprotein p62: SGFNFGGTGAPTGGFTFGTAKTATTTPATGFSFSTSGTGGFNFGAPFQPATSTPSTGLFSLATQTPATQTTGFTFGTATLASGGTGFSLGIGASKLNLSNTAATPAMANPSGFGLGSSNLTNAISSTVTSSQGTAPTGFVFGPSTTSVAPATTSGGFSFTGGSTAQPSGFNIGSAGNSAQPTAPATLPFTPATPAATTAGATQPAAPTPTATITSTGPSLFASIATAPTSSATTGLSLCTPVTTAGAPTAGTQGFSLKAPGAASGTSTTTSTAATATATTTSSSSTTGFALNLKPLAPAGIPSNTAAAVTAPPGPGAAAGAAASSAMTYAQLESLINKWSLELEDQERHFLQQATQVNAWDRTLIENGEKITSLHREVEKVKLDQKRLDQELDFILSQQKELEDLLSPLEELVKEQSGTIYLQHADEEREKTYKLAENIDAQLKRMAQDLKDIIEHLNTSGAPADTSDPLQQICKILNAHMDSLQWIDQNSALLQRKVEEVTKVCEGRRKEQERSFRITFD
B7: OLIG3 (protein, UniProt Q7RTU3 1-272, looked up)
Oligodendrocyte transcription …: MNSDSSSVSSRASSPDMDEMYLRDHHHRHHHHQESRLNSVSSTQGDMMQKMPGESLSRAGAKAAGESSKYKIKKQLSEQDLQQLRLKINGRERKRMHDLNLAMDGLREVMPYAHGPSVRKLSKIATLLLARNYILMLTSSLEEMKRLVGEIYGGHHSAFHCGTVGHSAGHPAHAANSVHPVHPILGGALSSGNASSPLSAASLPAIGTIRPPHSLLKAPSTPPALQLGSGFQHWAGLPCPCTICQMPPPPHLSALSTANMARLSAESKDLLK
B8: ATOH8 (protein, UniProt Q96SQ7 1-321, looked up)
Transcription factor ATOH8: MKHIPVLEDGPWKTVCVKELNGLKKLKRKGKEPARRANGYKTFRLDLEAPEPRAVATNGLRDRTHRLQPVPVPVPVPVPVAPAVPPRGGTDTAGERGGSRAPEVSDARKRCFALGAVGPGLPTPPPPPPPAPQSQAPGGPEAQPFREPGLRPRILLCAPPARPAPSAPPAPPAPPESTVRPAPPTRPGESSYSSISHVIYNNHQDSSASPRKRPGEATAASSEIKALQQTRRLLANARERTRVHTISAAFEALRKQVPCYSYGQKLSKLAILRIACNYILSLARLADLDYSADHSNLSFSECVQRCTRTLQAEGRAKKRKE
B9: PATZ1 (protein, UniProt Q9HBE1 1-687, looked up)
POZ-, AT hook-, and zinc …: MERVNDASCGPSGCYTYQVSRHSTEMLHNLNQQRKNGGRFCDVLLRVGDESFPAHRAVLAACSEYFESVFSAQLGDGGAADGGPADVGGATAAPGGGAGGSRELEMHTISSKVFGDILDFAYTSRIVVRLESFPELMTAAKFLLMRSVIEICQEVIKQSNVQILVPPARADIMLFRPPGTSDLGFPLDMTNGAALAANSNGIAGSMQPEEEAARAAGAAIAGQASLPVLPGVDRLPMVAGPLSPQLLTSPFPSVASSAPPLTGKRGRGRPRKANLLDSMFGSPGGLREAGILPCGLCGKVFTDANRLRQHEAQHGVTSLQLGYIDLPPPRLGENGLPISEDPDGPRKRSRTRKQVACEICGKIFRDVYHLNRHKLSHSGEKPYSCPVCGLRFKRKDRMSYHVRSHDGSVGKPYICQSCGKGFSRPDHLNGHIKQVHTSERPHKCQTCNASFATRDRLRSHLACHEDKVPCQVCGKYLRAAYMADHLKKHSEGPSNFCSICNRGFSSASYLKVHVKTHHGVPLPQVSRHQEPILNGGAAFHCARTYGNKEGQKCSHQDPIESSDSYGDLSDASDLKTPEKQSANGSFSCDMAVPKNKMESDGEKKYPCPECGSFFRSKSYLNKHIQKVHVRALGGPLGDLGPALGSPFSPQQNMSLLESFGFQIVQSAFASSLVDPEVDQQPMGPEGK
B10: PFDN5 (protein, UniProt Q99471 2-154, looked up)
Prefoldin subunit 5: AQSINITELNLPQLEMLKNQLDQEVEFLSTSIAQLKVVQTKYVEAKDCLNVLNKSNEGKELLVPLTSSMYVPGKLHDVEHVLIDVGTGYYVEKTAEDAKDFFKRKIDFLTKQMEKIQPALQEKHAMKQAVMEMMSQKIQQLTALGAAQATAKA
B11: PBX3 (protein, UniProt P40426 1-434, looked up)
Pre-B-cell leukemia …: MDDQSRMLQTLAGVNLAGHSVQGGMALPPPPHGHEGADGDGRKQDIGDILHQIMTITDQSLDEAQAKKHALNCHRMKPALFSVLCEIKEKTGLSIRGAQEEDPPDPQLMRLDNMLLAEGVSGPEKGGGSAAAAAAAAASGGSSDNSIEHSDYRAKLTQIRQIYHTELEKYEQACNEFTTHVMNLLREQSRTRPISPKEIERMVGIIHRKFSSIQMQLKQSTCEAVMILRSRFLDARRKRRNFSKQATEILNEYFYSHLSNPYPSEEAKEELAKKCSITVSQVSNWFGNKRIRYKKNIGKFQEEANLYAAKTAVTAAHAVAAAVQNNQTNSPTTPNSGSSGSFNLPNSGDMFMNMQSLNGDSYQGSQVGANVQSQVDTLRHVINQTGGYSDGLGGNSLYSPHNLNANGGWQDATTPSSVTSPTEGPGSVHSDTSN
B12: NSD2 (protein, UniProt O96028 1-1365, looked up)
Histone-lysine …: MEFSIKQSPLSVQSVVKCIKMKQAPEILGSANGKTPSCEVNRECSVFLSKAQLSSSLQEGVMQKFNGHDALPFIPADKLKDLTSRVFNGEPGAHDAKLRFESQEMKGIGTPPNTTPIKNGSPEIKLKITKTYMNGKPLFESSICGDSAADVSQSEENGQKPENKARRNRKRSIKYDSLLEQGLVEAALVSKISSPSDKKIPAKKESCPNTGRDKDHLLKYNVGDLVWSKVSGYPWWPCMVSADPLLHSYTKLKGQKKSARQYHVQFFGDAPERAWIFEKSLVAFEGEGQFEKLCQESAKQAPTKAEKIKLLKPISGKLRAQWEMGIVQAEEAASMSVEERKAKFTFLYVGDQLHLNPQVAKEAGIAAESLGEMAESSGVSEEAAENPKSVREECIPMKRRRRAKLCSSAETLESHPDIGKSTPQKTAEADPRRGVGSPPGRKKTTVSMPRSRKGDAASQFLVFCQKHRDEVVAEHPDASGEEIEELLRSQWSLLSEKQRARYNTKFALVAPVQAEEDSGNVNGKKRNHTKRIQDPTEDAEAEDTPRKRLRTDKHSLRKRDTITDKTARTSSYKAMEAASSLKSQAATKNLSDACKPLKKRNRASTAASSALGFSKSSSPSASLTENEVSDSPGDEPSESPYESADETQTEVSVSSKKSERGVTAKKEYVCQLCEKPGSLLLCEGPCCGAFHLACLGLSRRPEGRFTCSECASGIHSCFVCKESKTDVKRCVVTQCGKFYHEACVKKYPLTVFESRGFRCPLHSCVSCHASNPSNPRPSKGKMMRCVRCPVAYHSGDACLAAGCSVIASNSIICTAHFTARKGKRHHAHVNVSWCFVCSKGGSLLCCESCPAAFHPDCLNIEMPDGSWFCNDCRAGKKLHFQDIIWVKLGNYRWWPAEVCHPKNVPPNIQKMKHEIGEFPVFFFGSKDYYWTHQARVFPYMEGDRGSRYQGVRGIGRVFKNALQEAEARFREIKLQREARETQESERKPPPYKHIKVNKPYGKVQIYTADISEIPKCNCKPTDENPCGFDSECLNRMLMFECHPQVCPAGEFCQNQCFTKRQYPETKIIKTDGKGWGLVAKRDIRKGEFVNEYVGELIDEEECMARIKHAHENDITHFYMLTIDKDRIIDAGPKGNYSRFMNHSCQPNCETLKWTVNGDTRVGLFAVCDIPAGTELTFNYNLDCLGNEKTVCRCGASNCSGFLGDRPKTSTTLSSEEKGKKTKKKTRRRRAKGEGKRQSEDECFRCGDGGQLVLCDRKFCTKAYHLSCLGLGKRPFGKWECPWHHCDVCGKPSTSFCHLCPNSFCKEHQDGTAFSCTPDGRSYCCEHDLGAASVRSTKTEKPPPEPGKPKGKRRRRRGWRRVTEGK
B13: OVOL3 (protein, UniProt O00110 1-190, looked up)
Putative transcription factor …: MPRAFLVRSRRPQPPNWGHLPDQLRGDAYIPDCSSLGGPPAQQSSSVRDPWTAQPTQGNLTSAPRGPGTLGCPLCPKAFPLQRMLTRHLKCHSPVRRHLCRCCGKGFHDAFDLKRHMRTHTGIRPFRCSACGKAFTQRCSLEAHLAKVHGQPASYAYRERREKLHVCEDCGFTSSRPDTYAQHRALHRAA

Tested on: HEK293FT cells transfected with TF library
Test: Screening of TF condensates based on fluorescent puncta
Type: cell-based
Conditions: Figure 1B numerical data; TF library screen, one value per transcriptional factor
How it was run: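 HEK293FT cells were reverse-transfected with Flag- or GAL4-tagged TF plasmids (1.6 μg/ml, PEI). After 60 h, cells were cultured 12 h with or without glucose, then fixed and immunostained with anti-Flag or anti-GAL4 and Alexa 488 secondaries. Fluorescent puncta were imaged over fifty random fields per well by high-content imaging.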

Molecule	Z score of condensed fraction
B1	-0.6656
B2	-0.5192
B3	-0.194
B4	0.5274
B5	-1.059
B6	-0.01313
B7	-0.3841
B8	-1.0319
B9	-0.2188
B10	0.7455
B11	0.7478
B12	-0.8212
B13	-0.7593
